Source: a protein production outcome set (Wang et al. 2014)

Assay: label from the status in PepcDB records

With “MPVLVASDLDRTLIYSAAALGLTMPDLRAPRLLCVEVYESKPLSYLTETAAQLLTDLGDSALFVPTTTRTRKQYQRINLPGPAPKYAICANGGHLLVDGVSDPGWHARVTARLADECASLAEVRDHLTNTADPLWVRKHRVAEDLFAYLVVERDLLPQDWVKELAVWAENRGWTVSLQGRKIYAVPKPLTKSAAMHEVARRTGAELTLAAGDSLLDADLLLAADRGWRPGHGELADSGWTAPTISALPERGVLAGERILREFLRAVRPAR” as the sequence, how does the protein production read?
Its protein production is “failed”.

Which protein production does the source give for “MPVNQYQQEVGETLEHFAVGQMPDVKFLEGRYCSVEHIDARKHLNDIIDFYWKNAVPSDWTYMFDQPFETAEAVQERLQDYEKSENPYFFAIRDKETDKVLGTFSLMRIDPKNRVLEMGRVIYAPALQKTSAATEAQYLVMNYVFENLGYRRYEWKCDHLNQSSGNAAKRLGFTYEGTFRKHVVYKGRTRDTDWFSVIDQDWPKLKKRFENWLSPKNFDKTGQQIKALKDC” here?
Its protein production is “failed”.

Which protein production does the source give for “MPVQNRIHKGINMNSYAHLNVEKRGHTAVVTIDNPPANTWNRASLTALKQLVADLNADRDIYALVITGQGEKFFSAGADLNLFADGDKKVATEMTLLFGEAFEALSAFRGVSIAAINGYAMGGGLECALACDIRIAEEQAQMALPEAGVGLLPCAGGTQNLPWLVGEGWAKRMILCGERVNAATAERIGLVEQVVAKGEALAAALKLAEGVARQSPSSVGVCKQLVQAARTQPPAWNLIKEREAFIKLFDTQDQAEGTRAFLEKRAPNWKNA” here?
Its protein production is “failed”.

With “MPVQTYPVDIVIRAYDRPGLLRDVSQVLLNEKINVLAVNTRSNKEDNTALMSLTIEIPGLDALGRLLGRISQLPNIIETRRNRTPLEHHHHHH” as the sequence, how does the protein production read?
Its protein production is “failed”.

With “MPVRASIEPLTWENAFFGVNSAIVRITSEAPLLTPDALAPWSRVQAKIAASNTGELDALQQLGFSLVEGEVDLALPVNNVSDSGAVVAQETDIPALRQLASAAFAQSRFRAPWYAPDASGRFYAQWIENAVRGTFDHQCLILRAASGDIRGYVSLRELNATDARIGLLAGRGAGAELMQTALNWAYARGKTTLRVATQMGNTAALKRYIQSGANVESTAYWLYR” as the sequence, how does the protein production read?
Its protein production is “not failed”.

For “MPVTDVKHDLDTLTLTITAEFAAPVTRIWQIYADPRQLEKVWGPPSHPATVVDHDLRPGGRVTYFMTGPDGEKYAGYWEITAVDEPHSFSFLDGFADEDFNPNTDLPVSTNVYTFTEHDGGTRATYVGTYASAEALQQVLDMGVIEGASSAINQIDALLTA”, which protein production is on record?
The protein production was “failed”.

For “MPVTEKDLAEDAPWKKIQQNTFTRWCNEHLKCVNKRIGNLQTDLSDGLRLIALLEVLSQKRMYRKYHQRPTFRQMQLENVSVALEFLDRESIKLVSIDSKAIVDGNLKLILGLVWTLILHYSISMPVWEDEGDDDAKKQTPKQRLLGWIQNKIPYLPITNFNQNWQDGKALGALVDSCAPGLCPDWESWDPQKPVDNAREAMQQADDWLGVPQVITPEEIIHPDVDEHSVMTYLSQF”, which protein production is on record?
Its protein production is “failed”.

Which protein production does the source give for “MPYKLTLEACTKCGTCAEACTMYLGSGRKKIYSPVYRSDMLRKIYKKHFTLTGKLFGPLIGAKDPTEDDINALAESAYRCTVCRRCALACPFGLDNGLITRETRKIFADLGILEHHHHHH” here?
Its protein production is “not failed”.

With “MPYLPEVIIILVLIALNGIFAMSEFALVSAKKIRLRQKAEKGDAGAETALKLSNEPTAFLSTVQIGITLVGIFAGAFGGATIAGELDTYLRDFPALARYSATLSITLVVLIITYLTLILGELVPKQLALNNAETIASRVAKPMFFLSLMARPLVLVLSYSTDAVLRLLRVRKIIGPPVTEEEIKIMIEEGTEAGVFERAEMSMIEGVFDIGDRRVESLMTHRSDIIALDLDDPVDENLKKMIASGRSNFPVYERDLDDVIGIVSVKDVLAKLVESGKVDIRASVTKPLFAPEAITILKLLESFKETGMHIALITDEYGSVQGIITLHDILEAIVGDVRSLGEPEEEQITVLENGSWLIDGDTPVNKLKYVLSVDSFPGEEQGYYLTIAGLIMYILQRIPKTGDHMEFNGLRYEVVDMDGIRIDKVMVTKVPEISKD” as the sequence, how does the protein production read?
Its protein production is “not failed”.

With “MQAGSMSAPKQLVIIGAGEFAQIACEYFQHDSHYTVVAFSVERDFLLQHTLAELPVVAYEELEQRYPPEQYEVFVAIPATRLNRLRTRFFQDVVQRGYRCATYVSSRAFVWHNAQIGANCFIFEGNVIQPFTRIGDNCVLWSGNHIGHRTAVRDHVFIASHAVISGYCEIGQGSFIGVNATLSDKVHIAANNIIGAGALVTRHTEAERVYVGSPARAVAGRSSFDVEL” as the sequence, how does the protein production read?
Its protein production is “failed”.

With “MQAKLRLWLTFCVVTPVLLLFGNAGLAEQTPAPKVLKPVTSKAVGVTPRGQVLSLSCSSCHGTDGKSVGIMPSFYGKTPQYIETALLEFKSGKRYSTVMGRHAKGYSDDEIHLIAQYCGIKGQKTK” as the sequence, how does the protein production read?
The protein production was “failed”.

For “MQAMTERLEAMLAQGTDNMLLRFTLGKTYAEHEQFDAALPHLRAALDFDPTYSVAWKWLGKTLQGQGDRAGARQAWESGLAAAQSRGDQQVVKELQVFLRRLAREDALEHHHHHH”, which protein production is on record?
Its protein production is “not failed”.

Which protein production does the source give for “MQARLSGTSIGLTGPAATKLVRLSRAIEWMSTIGIVLIVGLIGAVFLVPSWTRNLLLTKLGEIGTRLPLDAGNQALAAVIITVPVAVMLWGLVNVRALFAEFARGQVFTTTAATYLQRFGIAVLAQGLLGPVTATALALALSLSNPPGQRLLVLTFSSNDYVSVIVGGVLVAVAAVMREAARLADENASFV” here?
Its protein production is “failed”.

For “MQARWIGNMMFHVRTDSNHDVLMDTKEEVGGKDAAPRPLELVLTGLMGCTGMDVVSILRKMKVIDQMKDFRIEIEYERTEEHPRIFTKVHLKYIFKFDGEPPKDKVEKAVQLSQEKYCSVSAILKCSSKVTYEIVYEN”, which protein production is on record?
Its protein production is “not failed”.

For “MQASENSHDDFLFIDDSDEDEILAFGSNETWQVLIVDDDPEIHSVTQLALSDLVVLGRRLEYLHAYSGKDACQLIENNDDIVLVLLDVVMETDDAGLNVVKYIRETLQRKDIRIVLRTGQPGYAPEESVIKEYDINDYKTKTELTRRKLVTTVFAAIRSFQQIATVNENRQGLEKIVSGATELSSQHSLPTFSQSVLSQLRTLISDDISAVFCARGQGIIDNIDDLSFYVLAQIGFDDSLLNQKIDTLQDNQANKQVKACFLQQKHQYLDDSLDLYVAKGDYRAVIHVRLSSPLTEIQTQLLNVFLTGVAVGYENVHLFQKLTNAAYRDWLTNLPNRLEFVRLLDSFAQNDCKNTVAALIDINHFSDINDALGQDIGNKLLSAVGQRIQSIGSDCQLARVGADVFGIIGPADCLTPESLIALFHQPFAAGEQHLPINACFGLCTKEHAQSSGVQVLNQINIALNIAKKNRLEHFAYYHSDIEDQMQWRLNMIRQLRNDFGNNCLELWYQPQLSLTTGKVIGAEALLRWRTADGKFVSPAVFIPLAEYSGLIIEIGDWVISQACKQLKVLEENFSDLSISVNVSIPQFRQDNFVDNIINTMTQYGIKPNKLELEITENILMDEPQIIIDALTKLKAQGISIALDDFGTGFSSLSYLQKLPLNRLKVDRAFVTDINKEGQSVIAETIINLGKKMQLKVIAEGIEEIEQQERLIELGCDEVQGFYYAKPMPADEFINFLHQQS”, which protein production is on record?
Its protein production is “failed”.

Which protein production does the source give for “MQATMTDKNTRELLLDAATTLFAEQGIAATTMAEIAASVGVNPAMIHYYFKTRDSLLDTIIEERIGRIIDMIWEPVTGEEDDPLIMVRDLVNRIVNTCETMLWLPSLWIREIVNEGGALREKMLNNIPIDKMNKFSAKIAEGQKQGVINSGIDSRLLIGSIIGLTMLPLATAKLRDQIPTMKGLSSEDIVCHVTALLFTGLTNPSNSDDIKKQRT” here?
The protein production was “not failed”.

Which protein production does the source give for “MQATTATPHDIVFLFDCDNTLLDNDHVLADLRAHMMREFGAQNSARYWEIFETLRTELGYADYLGALQRYRLEQPRDTRLLLMSSFLIDYPFASRVYPGALNALRHLGARGPTVILSDGDVVFQPRKIARSGLWDEVEGRVLIYIHKELMLDQVMECYPARHYVMVDDKLRILAAMKKAWGARLTTVFPRQGHYAFDPKEISSHPPADVTVERIGDLVEMDAEWLLAEKR” here?
Its protein production is “not failed”.

For “MQAVLTAALPVFALILTGWLAARWRVLGPSATDALNRYVVYLSLPALLFRAMAQADLRQLADYWGFTAAVAGGIALTFGAAILACRRDGARLTDLSLEGLATSYGNAGYMGIPLCLALLGPASLAPAIITTLLTACVLFGVAIALIEFDQHRDRHWSATLLKVARALLRNPLLAAPLLGLACAAAGITLPAGLDNYAALLGASASPCALVTIGLFLAQSQPGGDRGTVGLMVDGKLLLHPAVTAVLAFAVFDMPPLWAWCAVLMAALPIGTGPFMLAQLYGRDARPSSRAILLSTVLSVPTITALVAWIGRQPLG”, which protein production is on record?
The protein production was “failed”.

For “MQDKNFDKLAQKFAKNIYGTPKGEIRAAVLWRDLAPALAQFGDKKLRILDAGGGFGYFSQKLARLGHEVVLCDISAEMLAQAKEQIDASDTPLAIRLVHAPIQALSITEHGMFDLILCHAVVEWLADAKTTMEGLLTMLKPNGLFSLMFYNKEAMRFHALVSGNFDYVAADLKVKKKVRLTPTHPLYIHEVKLWFAQWQMALLKESGVRVIHDYLKKQQAADFDYQKLLSMELEYSQREPYISLGRYVHFLGLEHHHHHH”, which protein production is on record?
The protein production was “failed”.

Which protein production does the source give for “MQDSLGIMIKKANNALARDSDHYAKSLGLTGMQISTINFIANNEQHHDLFQRDLELEFNIRKATCSSLVSKMEAADLLIRVPAKDDGRYKRLLLTPKARQLATKIERFFETSEQRMATILGVNTAETYEALRQIAVAFSTPTHAPENWY” here?
The protein production was “failed”.

With “MQDWWEADNRLADWLSMILIQRTIEKNAKQALANLGPHLDLESLIGMDMATLEEYIYPAGFYKQKSIYIKALIKWFHGHGASLDKFQTYSTEDLRKELLGIKGVGEETADAMLLYIFERNVFIADLEHHHHHH” as the sequence, how does the protein production read?
Its protein production is “failed”.

Which protein production does the source give for “MQEKGFKEGVKASLPTALGYVSIGLACGVVGANSGLTPFQMGLMSLLVYAGSAQFVMCAMFVAGADLFSIVMTVFLINLRNFLMSLHATTIFTKSSLWQTICIGTLITDESYGVLLNEHVHHKNISTAWMHGNNITGYIAWLFAVILGTALGSVIPNPETLGLDFALIAMFVSIFESQLAAMMQFVKLKKIGLILLAVTLSYFLLVIVISESLAVLLSTLIGCFAGVLLDVR” here?
Its protein production is “failed”.

Which protein production does the source give for “MQEKPAATGKADESAASKELLKLLRKAVAAVSGEDGWASLSNLGSHISKIRPSFDSRNYGYSKLSTLVKNLDIFETRMVPSADKLHTDVFLRLKDGKLEHHHHHH” here?
Its protein production is “failed”.

With “MQENPSSSPFERRMESYQTQDSNDLHQLWRPREEDLEKLYRVPLGLTNEQLVEKLQLFSGEGEEKTLFVWVNRDLLGYRFLFWLTGMVLKEKQDGDVEHANKLEIIRDWVIESVVKIDRFLVRRVKQAEEKLKSLIQDYDSFKTSPEKKLLQITGQSEMDFVCLWVVVYTAVIAWKLRAAQTESSATHPSSIVVSECRHLLEQKDVFQRKTPKGLKLVAQLFDRSIEELNPRLKTLGDTDIREIGRLMTILELLPADPYRLLCRIACNLYDGAILLQYGVENYQIGSVRFGLDPYSFDSESKIPKLNNPFITIGK” as the sequence, how does the protein production read?
The protein production was “failed”.

With “MQERIKACFTESIQTQIAAAEALPDAISRAAMTLVQSLLNGNKILCCGNGTSAANAQHFAASMINRFETERPSLPAIALNTDNVVLTAIANDRLHDEVYAKQVRALGHAGDVLLAISTRGNSRDIVKAVEAAVTRDMTIVALTGYDGGELAGLLGPQDVEIRIPSHRSARIQEMHMLTVNCLCDLIDNTLFPHQDD” as the sequence, how does the protein production read?
The protein production was “not failed”.

With “MQFLAPIISIVVGFLSFVLVLRTWMQFCQVSAYLPLSQSLLRLTAPMVNPVSKFIPTVKNINFAALLIALALLAVEKGVLGLPLTMAVLVGLLGIIKMFGQILFFTTLIRALMSWVTRGDHPLDEVIAQITEPVLGIIRKILPRTGMLDFSVMVLGFGLLLLNNLFYSVFGAFWAVA” as the sequence, how does the protein production read?
The protein production was “failed”.
